Experimental data as given in patent US20220275097A1.

Target: leptin receptor on reporter cells (SIE-luciferase reporter cells; Ba/F3-lepR reporter cells), P48357
Experiment: cell-based or functional assay

leptin receptor on reporter cells (SIE-luciferase reporter cells; Ba/F3-lepR reporter cells), P48357, sequence (P48357 22-1165): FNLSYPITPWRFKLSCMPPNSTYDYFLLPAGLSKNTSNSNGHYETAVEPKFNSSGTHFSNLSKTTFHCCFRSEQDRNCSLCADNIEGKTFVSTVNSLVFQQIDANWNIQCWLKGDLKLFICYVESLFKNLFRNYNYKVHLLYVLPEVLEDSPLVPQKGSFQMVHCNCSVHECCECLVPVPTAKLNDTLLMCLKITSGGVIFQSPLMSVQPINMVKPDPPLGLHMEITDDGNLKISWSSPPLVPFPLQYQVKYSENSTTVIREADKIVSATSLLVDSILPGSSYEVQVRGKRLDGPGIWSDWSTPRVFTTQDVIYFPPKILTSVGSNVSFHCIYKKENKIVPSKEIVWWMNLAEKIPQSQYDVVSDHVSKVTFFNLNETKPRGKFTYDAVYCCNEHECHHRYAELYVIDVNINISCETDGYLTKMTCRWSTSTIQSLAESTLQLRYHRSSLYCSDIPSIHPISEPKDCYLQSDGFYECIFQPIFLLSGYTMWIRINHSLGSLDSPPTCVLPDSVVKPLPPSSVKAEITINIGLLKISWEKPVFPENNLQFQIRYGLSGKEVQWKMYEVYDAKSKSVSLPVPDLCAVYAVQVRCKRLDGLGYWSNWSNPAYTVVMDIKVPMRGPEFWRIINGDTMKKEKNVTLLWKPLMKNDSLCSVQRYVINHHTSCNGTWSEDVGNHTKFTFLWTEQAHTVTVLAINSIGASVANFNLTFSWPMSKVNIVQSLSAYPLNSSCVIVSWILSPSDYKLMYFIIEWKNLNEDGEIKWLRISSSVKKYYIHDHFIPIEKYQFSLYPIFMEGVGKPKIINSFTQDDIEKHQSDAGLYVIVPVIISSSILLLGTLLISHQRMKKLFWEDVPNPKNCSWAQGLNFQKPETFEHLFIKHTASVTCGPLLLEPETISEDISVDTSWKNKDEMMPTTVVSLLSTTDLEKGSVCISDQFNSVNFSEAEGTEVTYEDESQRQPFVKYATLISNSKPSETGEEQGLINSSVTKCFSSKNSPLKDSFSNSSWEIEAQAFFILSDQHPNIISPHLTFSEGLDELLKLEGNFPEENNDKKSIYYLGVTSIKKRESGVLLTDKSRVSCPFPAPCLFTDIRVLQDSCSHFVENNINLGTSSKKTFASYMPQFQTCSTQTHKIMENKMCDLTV

| EC50(M), Cell proliferation assay (Ba/F3-lepR) | EC50(M), Luciferase assay | EC50, SIE-luciferase reporter assay | Binder |
| --- | --- | --- | --- |
| 1.15e-09 M | 4.94e-10 M | 0.494 nM | S2H7 (antibody, V domains shown) VH: QVQLLQSGGGVVQPGRSLRLSCAASGFTFSSYGMHWVRQAPGKGLEWVAVISYDGSNKYYADSVKGRFTISRDNSKNTLYLQMNSLRAEDTAVYYCATRYENYFSTWGQGTLVTVSS VL: EIVLTQSPGTLSLSPGERATLSCRASQSVSSNYLAWYQQKPGQAPRLLIYGASSRPTGIPDRFSGSGSGTDFTLTISRLEPEDFAVYYCQQYAASPLTFGGGTKLEIK |
| 4.19e-10 M | 4.53e-10 M | 0.453 nM | S2H1 (antibody, V domains shown) VH: QVQLLQSGGGVVQPGRSLRLSCAASGFTFSSYGMHWVRQAPGKGLEWVAVISYDGSNKYYADSVKGRFTISRDNSKNTLYLQMNSLRAEDTAVYYCASLYENYFSLWGQGTLVTVSS VL: EIVLTQSPGTLSLSPGERATLSCRASQSVSSNYLAWYQQKPGQAPRLLIYGASSRPTGIPDRFSGSGSGTDFTLTISRLEPEDFAVYYCQQYAASPLTFGGGTKLEIK |
| 1.93e-10 M | 3.28e-10 M | 0.328 nM | S2H3 (antibody, V domains shown) VH: QVQLLQSGGGVVQPGRSLRLSCAASGFTFSSYGMHWVRQAPGKGLEWVAVISYDGSNKYYADSVKGRFTISRDNSKNTLYLQMNSLRAEDTAVYYCAGVRENYFTYWGQGTLVTVSS VL: EIVLTQSPGTLSLSPGERATLSCRASQSVSSNYLAWYQQKPGQAPRLLIYGASSRPTGIPDRFSGSGSGTDFTLTISRLEPEDFAVYYCQQYAASPLTFGGGTKLEIK |
| 6.87e-10 M | 6.52e-10 M | 0.652 nM | S2H2 (antibody, V domains shown) VH: QVQLLQSGGGVVQPGRSLRLSCAASGFTFSSYGMHWVRQAPGKGLEWVAVISYDGSNKYYADSVKGRFTISRDNSKNTLYLQMNSLRAEDTAVYYCATFRENYFEYWGQGTLVTVSS VL: EIVLTQSPGTLSLSPGERATLSCRASQSVSSNYLAWYQQKPGQAPRLLIYGASSRPTGIPDRFSGSGSGTDFTLTISRLEPEDFAVYYCQQYAASPLTFGGGTKLEIK |
| 1.63e-09 M | 7.38e-10 M | 0.738 nM | S2H5 (antibody, V domains shown) VH: QVQLLQSGGGVVQPGRSLRLSCAASGFTFSSYGMHWVRQAPGKGLEWVAVISYDGSNKYYADSVKGRFTISRDNSKNTLYLQMNSLRAEDTAVYYCASRYENYFSLWGQGTLVTVSS VL: EIVLTQSPGTLSLSPGERATLSCRASQSVSSNYLAWYQQKPGQAPRLLIYGASSRPTGIPDRFSGSGSGTDFTLTISRLEPEDFAVYYCQQYAASPLTFGGGTKLEIK |
